Data: patent publication US20240150805A1, “Glycosylated Opioids” (River Stone Biotech ApS, priority 2021, published 2024)

Legend:
[1] = In vitro glucosylation of oripavine and nororipavine by purified UGTs; assay type: biochemical; settings: for specificity for nororipavine compared to oripavine: 72UGTs, test setup of example 3, FIG. 8; for preference for nororipavine glucosylation compared to oripavine glucosylation: purified UGT, 500 μM substrate, overnight at 30° C., HPLC
Method: Glucosylation samples of a 20 μL total reaction volume for each UGT to be tested were prepared in 96-well microtiter plates as follows:
The microtiter plate was sealed with an adhesive seal, spun shortly and the glucosylation samples were incubated overnight at 30° C. After incubation, glucosylation reaction was terminated by adding 3 volumes (60 μL) of ice-cold 100% methanol the reaction volume and mixing well, followed by centrifugation of the plate at 3000 rpm for 5 min at 4° C. and analysis by HPLC.
The 72UGTs of Table 5 were tested in vitro to using the test setup of example 3 identify those having having specificity toward nororipavine.

[2] = Test of additional UGT (SEQ ID NO: 170) in yeast fed with oripavine; assay type: cell-based, Saccharomyces cerevisiae; settings: Delft pH 5.5 media, 2 mM oripavine, 3 days, 30 degrees Celsius
Method: An additional UGT (SEQ ID NO: 170) with 62% identity at the protein level to SEQ ID NO: 96 was also tested in a similar manner as above. Briefly, cells were grown overnight in SC-HLU and used to inoculate Delft pH 5.5 media containing 2 mM oripavine. After growth with shaking at 30 degrees Celsius for 3 days, total extracts were obtained by mixing the cultures with an equal volume of 0.2% formic acid and heating at 80 degrees Celsius for 10 minutes. After centrifugation, the supernatant was diluted in 0.1% formic acid for quantification by HPLC as described in the Materials and Methods. UGT SEQ ID NO: 170 was active for glucosylation on both oripavine and nororipavine however it produced 41% of the noropavine-glu relative to SEQ ID NO: 96 and 35% of oripavine-glu relative to SEQ ID NO: 96.

[3] = Effect of N-terminal tags on UGT activity in yeast bioconversion of oripavine; assay type: cell-based, Saccharomyces cerevisiae; settings: UGT with solubility tag

| Molecule | preference for nororipavine glucosylation compared to oripavine glucosylation [1] | amounts of glucosylated nororipavine compared to the untagged UGT alone [3] | further results |
| --- | --- | --- | --- |
| XP_023875154: subfamily 72 UGT, sequence homolog of Qs72S_1 (protein, Quercus suber) MLSKMEQKPHIALLPSLGMGHLIPLVEFAKQFVLHHDFHITCIIPVLGSPSKAMKAVLQALPTAIDHVFLPPVKLEEEEIKGLKFEVQTILTLTRSLPPLREVLKSTRFSAFVVDPFGIDALDIAKELNISPYIFFPTNAFALSLIFHLPKLDETVSCEYRDLPEPLKLPGCIPIHGRDLLEPVQDRTSELYKMFLRNAKRFRLAEGIIVNTFMELEGSAIKALLDEEAKNLPLYPIGPIQSGSSNQVDKSESDCLRWLDNQPHGSVLFVCFGSGGTLSYDQTNELALGLELSGQKFLWVVRTPNNESADAAYLSDQTLNNNLLAFLPKGFVERTEGQGLAVPSWAPQAQVLSHGSTGGFLTHCGWNSTLESIMQGIPLIAWPLYAEQKMNAPLLAEDLKVALRPKTNKNGLIDREEIAKVVKGLMIGEEGKKVYNRMKDIKMAAEKALSADGSSTKALSELASQWKNHPGF | particularly strong preference for Nororipavine glucosylation | – | specificity for nororipavine compared to oripavine [1]: particularly high specificity |
| SEQ ID NO: 170: additional UGT with 62% identity at the protein level to SEQ ID NO: 96 (protein) MEQTPHIAIMPTQGMGHLIPLVEFAKRLVLTHNFSATFLIPTDPGRLPAAQKSFLDSLPAGINYVLLPPVNFDDLPDDVGSETRISLAVVRSLPSLRDALKSLVSGFRVVALVVDLFGTDAFDVAAEFNVSPYIFYPSTAMALSLFLHLPKLDESVSCEYRDLPEPVQIPGCIPVHGKDLLDPVQDRKNGAYKWLLHQVKRYRLAEGIMVNSFKELEGGAIKALQEEEPGKPPVYPIGPLVQMDGADEKSECLRWLDDQPRGSVLFVSFGSGGTLSYDQLNELALGLEMSEQRFLWVVRSPNNKSANATYFSVNSQNDPFAFLPKGFLERTKGYGLVVPSWAPQVRVLSHGSTGGFLTHCGWNSTLESVVNGVPLIAWPFYAEQKMNAVMLTEDLKVALRLRIGENGIIGRAEIAKVVKGLMEGEEGKQIRSRMIDLKDAAARALGEDGDSTKSLAELAQKWKNKIIS | – | – | noropavine-glu produced relative to SEQ ID NO: 96 [2]: 41%; oripavine-glu produced relative to SEQ ID NO: 96 [2]: 35% |
| KAF3968553: subfamily 72 UGT, sequence homolog of Qs72S_1 (protein, listed as Castanea mollissima) MEQKPHIALLPSPGMGHLIPLVEFAKLFVLHHDFRITCIIPVLGSPSKAMKAVLQALPTTIDHVFLPPVILEEEEIKGLKFEVQTILTLTRSLPPLRDVLKSTRFSAFVVDPFGIDALDIAKELKISPYIFFPTNAFVLSLMFHLPKLDETVSCEYRDLPEPLKLPGCIPIHGRDLIEPVQDRTSELYKMFLRNVKRFRLAEGIIVNTFMELEGSAIKALLDEEAKNLPLYPIGPIQSGSSNLQVDKSESDCLRWLDNQPRGSVLFVCFGSGGTLSYDQTNELALGLELSGQKFLWVVRTPDNESADAAYLSDQTLDNNPLAFLPKGFVERTEGQGLAVPSWAPQAQVLSHGSTGGFLTHCGWNSTLESIMQGIPLIAWPLYAEQKMNAPLLAEDLKVALRPKTNKNGLIDREEIAKVVKGLMVGEEGKKVHNRMKDIKIAAEKALSADGSSTKTLSELASQWKNHPGF | particularly strong preference for Nororipavine glucosylation | – | specificity for nororipavine compared to oripavine [1]: particularly high specificity |
| PWA70520: subfamily 71 UGT (protein, listed as Artemisia annua) MTTLELVFIPSPGAGHLPPTVELAKLLLDHDQRLSVTIIIMNLPFEAEQVTETPISTPRLNFIYVANEDSSKDLISPHTFMSAFLEHQKPKLKNIIRDITESDSVRLVGFIVDMFCIAMIDVANEFGVPTYVYFTSSASALGLMFHLQAKCDDEEYDVTDLKDSDLMLSIPSYVKPIPAKLLPSVLFDKQGGSKMFIDLAKKFRESEGIIINSFQELESHGLEFLIKGDPNIPPVFPVGPILNLKNTKNDGKTTDIMAWLDNQPKSSVVFLCFGSMGSFGEKQVKEIAVALERSEHRFLWSLRRPPSKEVMRLPEEYENFKEVLPEGFLECTSNLGKVIGWAPQTSVLSHPSLGGFVSHCGWNSTLESIWFGVPVAAWPLYAEQQINAFQLVMELGIAAEIKIDYKSNIGPGGGSNEMLVKADEIESGIRRLMNDDDMRRNVKEMKHMSRLTVTEGGSSYASIKRFIELVITNT | preference for glucosylation of nororipavine | – | – |
| SEQ ID NO: 204: UGT fused N-terminally to a solubility tag (protein) MKAQYEDGKQYTTLEKPVAGAPQVLEFFSFFCPHCYQFEEVLHISDNVKKKLPEGVKMTKYHVNFMGGDLGKDLTQAWAVAMALGVEDKVTVPLFEGVQKTQTIRSASDIRDVFINAGIKGEEYDAAWNSFVVKSLVAQQEKAAADVQLRGVPAMFVNGKYQLNPQGMDTSNMDVFVQQYADTVKYLSEKKGGGGSEQKPHIALLPSPGMGHLIPLVEFAKQFVLHHDFHITCIIPVLGSPSKAMKAVLQALPTTIDHVFLPPVILEEEEIKGLKFEVQTILTLTRSLPPLREVLKTTRFSAFVVDPFGIDALDIAKELNISPYIFFPSNAFALSLIFHLPKLDETVSCEYRDLPEPLKLPGCIPIHGRDLIEPVQDRTSELYKMFLRNAKRFRLAEGIIVNTFMELEGSAIKALLDEEAKNLPLYPIGPIQSGSSNLQVDKSVSDCLRWLDNQPHGSVLFVCFGSGGTLSYDQTNELALGLELSGQKFLWVVRTPNNESADAAYLSDQILDNNPLDFLPKGFVERTEGQGLAVPSWAPQAQVLSHGSTGGFLTHCGWNSTLESIMQGIPLIAWPLYAEQKMNAPLLAEDLKVALRPKTNKSGLIDQEEIAKVVKGLMIGEEGKKVYNRMKDIKMAAEKALSADGSSTKALSELASQWKNHPGF | – | higher | – |
| XP_023914549: subfamily 72 UGT, sequence homolog of Qs72S_1 (protein, Quercus suber) MEQKPHIALLPSPGMGHLIPLVEFAKQFVLHHDFRITCIVPVLGSPSKAMKAVLQALPTTIDHVFLPPVKLEEEEIRGLKFEVQTILTLTRSLPPLREVLKSTRFSAFVVDPFGIDALDIAKELNISPYIFFPTNAFALSLIFHLPKLDKTVSCEYRDLPEPLKLPGCIPIHGRDLSEPVQDRTSELYKMFLRNAKRFRLAEGIIVNTFMELERSAIKALLDEEAKNLPLYPIGPIQSGSSNQVDKSESDCLRWLENQPHGSVLFVCFGSGGTLSYDQTNELALGLELSGQKFLWVVRTPNNESADAAYLSDQTLDNNPLAFLPKGFVERTEGQGLAVPSWAPQAQVLSHGSTGGFLTHCGWNSILESVMQGIPLIAWPLYAEQKMNAVLLAEDLKVALRPKTNKNGLIDREEIAKVVKGLMVGEEGKKVRNRMKDIKIAAVKALSADGSSTKALSELASQWKNHPGF | particularly strong preference for Nororipavine glucosylation | – | – |
| SEQ ID NO: 212: UGT fused N-terminally to a solubility tag (protein) METHINLKVSDGSSEIFFKIKKTTPLRRLMEAFAKRQGKEMDSLRFLYDGIRIQADQTPEDLDMEDNDIIEAHREQIGGGGGGSEQKPHIALLPSPGMGHLIPLVEFAKQFVLHHDFHITCIIPVLGSPSKAMKAVLQALPTTIDHVFLPPVILEEEEIKGLKFEVQTILTLTRSLPPLREVLKTTRFSAFVVDPFGIDALDIAKELNISPYIFFPSNAFALSLIFHLPKLDETVSCEYRDLPEPLKLPGCIPIHGRDLIEPVQDRTSELYKMFLRNAKRFRLAEGIIVNTFMELEGSAIKALLDEEAKNLPLYPIGPIQSGSSNLQVDKSVSDCLRWLDNQPHGSVLFVCFGSGGTLSYDQTNELALGLELSGQKFLWVVRTPNNESADAAYLSDQILDNNPLDFLPKGFVERTEGQGLAVPSWAPQAQVLSHGSTGGFLTHCGWNSTLESIMQGIPLIAWPLYAEQKMNAPLLAEDLKVALRPKTNKSGLIDQEEIAKVVKGLMIGEEGKKVYNRMKDIKMAAEKALSADGSSTKALSELASQWKNHPGF | – | higher | – |
| SEQ ID NO: 214: UGT fused N-terminally to a solubility tag (protein) METHINLKVSDGSSEIFFKIKKTTPLRRLMEAFAKRQGKEMDSLRFLYDGIRIQADQTPEDLDMEDNDIIEAHREQIGGGGGGSGGGGSGGGGSEQKPHIALLPSPGMGHLIPLVEFAKQFVLHHDFHITCIIPVLGSPSKAMKAVLQALPTTIDHVFLPPVILEEEEIKGLKFEVQTILTLTRSLPPLREVLKTTRFSAFVVDPFGIDALDIAKELNISPYIFFPSNAFALSLIFHLPKLDETVSCEYRDLPEPLKLPGCIPIHGRDLIEPVQDRTSELYKMFLRNAKRFRLAEGIIVNTFMELEGSAIKALLDEEAKNLPLYPIGPIQSGSSNLQVDKSVSDCLRWLDNQPHGSVLFVCFGSGGTLSYDQTNELALGLELSGQKFLWVVRTPNNESADAAYLSDQILDNNPLDFLPKGFVERTEGQGLAVPSWAPQAQVLSHGSTGGFLTHCGWNSTLESIMQGIPLIAWPLYAEQKMNAPLLAEDLKVALRPKTNKSGLIDQEEIAKVVKGLMIGEEGKKVYNRMKDIKMAAEKALSADGSSTKALSELASQWKNHPGF | – | higher | – |
